Reference: patent US20230322924A1 (Janssen / Centocor, published 2023)

B1: TMEB762 (antibody, human IgG4 S228P, kappa, F234A L235A, V domains shown)
VH: EVQLLESGGGLVQPGGSLRLSCAASGFTFSSYSMSWVRQAPGKGLEWVSVISGSGGFTDYADSVKGRFTISRDNSKNTLYLQMNSLRAEDTAVYYCARMPLNSPHDYWGQGTLVTVSS
VL: DIQMTQSPSSLSASVGDRVTITCRASQGIRNDLGWYQQKPGKAPKLLIYAASSLQSGVPSRFSGSGSGTDFTLTISSLQPEDFATYYCLQDYNYPLTFGGGTKVEIKR
notes: IgG4 PAA; also called TMEH459/DL3L129
B2: IC3B19 (bispecific antibody, human IgG4 S228P, kappa, F234A L235A)
heavy: not shown
light: DIQLTQSPSFLSASVGDRVTITCRASQGISSYLAWYQQKPGKAPKLLIYAASTLQSGVPSRFSGSGSGTEFTLTISSLQPEDFATYYCQQVNSYPLTFGGGTKVEIKRTVAAPSVFIFPPSDEQLKSGTASVVCLLNNFYPREAKVQWKVDNALQSGNSQESVTEQDSKDSTYSLSSTLTLSKADYEKHKVYACEVTHQGLSSPVTKSFNRGEC
VH: EVQLVESGGGLVQPGGSLRLSCAASGFTFNTYAMNWVRQAPGKGLEWVARIRSKYNNYATYYAASVKGRFTISRDDSKNSLYLQMNSLKTEDTAVYYCARHGNFGNSYVSWFAYWGQGTLVTVSS
VL: QTVVTQEPSLTVSPGGTVTLTCRSSTGAVTTSNYANWVQQKPGQAPRGLIGGTNKRAPGTPARFSGSLLGGKAALTLSGVQPEDEAEYYCALWYSNLWVFGGGTKLTVL
B3: IC3B34 (bispecific antibody, human IgG4 S228P, kappa, F234A L235A)
heavy: not shown
light: B2 light
VH: QVQLQQSGPRLVRPSQTLSLTCAISGDSVFNNNAAWSWIRQSPSRGLEWLGRTYYRSKWLYDYAVSVKSRITVNPDTSRNQFTLQLNSVTPEDTALYYCARGYSSSFDYWGQGTLVTVSS
VL: QSALTQPASVSGSPGQSITISCTGTSSNIGTYKFVSWYQQHPDKAPKVLLYEVSKRPSGVSSRFSGSKSGNTASLTISGLQAEDQADYHCVSYAGSGTLLFGGGTKLTVL
B4: IC3B34 (IAPB57×CD3B376) IL1RAP×CD3 bispecific antibody (bispecific antibody, human IgG4 S228P, kappa, lambda, F234A L235A)
heavy 1: not shown
light 1: B2 light
heavy 2: QVQLQQSGPRLVRPSQTLSLTCAISGDSVFNNNAAWSWIRQSPSRGLEWLGRTYYRSKWLYDYAVSVKSRITVNPDTSRNQFTLQLNSVTPEDTALYYCARGYSSSFDYWGQGTLVTVSSASTKGPSVFPLAPCSRSTSESTAALGCLVKDYFPEPVTVSWNSGALTSGVHTFPAVLQSSGLYSLSSVVTVPSSSLGTKTYTCNVDHKPSNTKVDKRVESKYGPPCPPCPAPEAAGGPSVFLFPPKPKDTLMISRTPEVTCVVVDVSQEDPEVQFNWYVDGVEVHNAKTKPREEQFNSTYRVVSVLTVLHQDWLNGKEYKCKVSNKGLPSSIEKTISKAKGQPREPQVYTLPPSQEEMTKNQVSLTCLVKGFYPSDIAVEWESNGQPENNYKTTPPVLDSDGSFLLYSKLTVDKSRWQEGNVFSCSVMHEALHNHYTQKSLSLSLGK
light 2: QSALTQPASVSGSPGQSITISCTGTSSNIGTYKFVSWYQQHPDKAPKVLLYEVSKRPSGVSSRFSGSKSGNTASLTISGLQAEDQADYHCVSYAGSGTLLFGGGTKLTVLGQPKAAPSVTLFPPSSEELQANKATLVCLISDFYPGAVTVAWKADSSPVKAGVETTTPSKQSNNKYAASSYLSLTPEQWKSHRSYSCQVTHEGSTVEKTVAPTECS
B5: IC3B19 (IAPB57×CD3B219) IL1RAP×CD3 bispecific antibody (bispecific antibody, human IgG4 S228P, kappa, F234A L235A)
heavy: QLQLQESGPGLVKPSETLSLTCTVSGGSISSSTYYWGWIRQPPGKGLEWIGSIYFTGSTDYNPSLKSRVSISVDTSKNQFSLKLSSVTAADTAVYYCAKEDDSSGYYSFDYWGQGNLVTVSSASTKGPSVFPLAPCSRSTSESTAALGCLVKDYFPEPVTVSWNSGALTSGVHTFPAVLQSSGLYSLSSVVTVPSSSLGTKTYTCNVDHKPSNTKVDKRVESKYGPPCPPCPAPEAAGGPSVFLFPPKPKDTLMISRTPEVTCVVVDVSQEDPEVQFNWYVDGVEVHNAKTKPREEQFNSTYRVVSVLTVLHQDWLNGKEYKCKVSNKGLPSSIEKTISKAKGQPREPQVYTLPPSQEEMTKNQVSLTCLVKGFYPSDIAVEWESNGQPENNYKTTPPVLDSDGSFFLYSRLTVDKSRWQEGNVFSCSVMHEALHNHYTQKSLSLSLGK
light: B2 light
VH: B2 VH
VL: B2 VL

What was measured:
Rh-integrin a4b7 = target: T1, Rh-integrin a4b7 (UniProt P13612 34-977; P26010 20-723, limits assumed); experiment: Biacore 8K SPR, antibody over immobilised protein
T1 construct: rh read as recombinant human
Procedure: (§1) Non-specific binding of the lead molecule to unrelated surfaces is determined by biosensor technology (Biacore 8K). Antibody is passed over SPR surfaces coated with unrelated proteins. […] Irrelevant surfaces include negatively charged protein (Soy Trypsin Inhibitor), positively charged protein (Lysozyme and β-defensin), hydrophobic (Rh-integrin a4b7), human IgG, sticky protein (Rh-CD19). Proper controls are used in this experiment. Lead is flown over two surfaces, one is a blank and the other has a molecule directly immobilized. The response unit (RU) level is determined by subtracting the blank RU from the test surface RU. […] A response unit ≥100 predicts high risks for non-specific binding to charged/hydrophobic/IgG surfaces which would create challenges during manufacturing and translate to poor PK properties.

Rh-CD19 = target: T2, Rh-CD19 (UniProt P15391 20-291, limits assumed); experiment: Biacore 8K SPR, antibody over immobilised protein
T2 construct: rh read as recombinant human
T2 sequence (looked up): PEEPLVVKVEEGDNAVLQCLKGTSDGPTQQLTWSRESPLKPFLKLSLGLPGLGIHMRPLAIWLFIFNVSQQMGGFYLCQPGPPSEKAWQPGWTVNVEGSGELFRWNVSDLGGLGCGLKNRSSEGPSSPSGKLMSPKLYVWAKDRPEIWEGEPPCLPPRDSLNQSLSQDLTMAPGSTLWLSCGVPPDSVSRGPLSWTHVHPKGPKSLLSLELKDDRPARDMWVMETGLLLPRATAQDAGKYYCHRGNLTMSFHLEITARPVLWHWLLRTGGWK
Procedure: as §1

[1] = target: human IL1RAP on NCI-H1975 cells (human); experiment: cell-based or functional assay
[2] = target: T3, human IL1RAP (interleukin-1 receptor accessory protein) on LAMA-84 cells (human); experiment: cell-based or functional assay
[3] = target: T3, human IL1RAP (interleukin-1 receptor …); experiment: cell-based or functional assay; remark: listed apart in the source

Binder	cytotoxicity EC50, caspase 3/7 assay, NCI-H1975 cells with pan T cells [1]	Cytotoxicity EC50 (nM), LAMA-84 cell line, whole blood T cell cytotoxicity assay, 48 h [2]	T-cell Activation EC50 (nM) (CD25), LAMA-84 cell line, whole blood assay, 48 h [3]	further results
B1	–	–	–	binding result (Rh-integrin a4b7): no binding (tested: response unit ≥100 predicts high risks); binding result (Rh-CD19): no binding (tested: response unit ≥100 predicts high risks)
B2	0.018 nM	–	–	–
B3	0.057 nM	–	–	–
B4	–	2.76 nM	7.83 nM	–
B5	–	2.1 nM	4.24 nM	–
